The source of these data is patent US20240018260A1 (AMUNIX PHARMACEUTICALS, published 2024).

In assay [1] the target is T1, human EpCAM on EpCAM positive human carcinoma cells (SW480, SK-OV-3) (human, UniProt P16422 24-314).
T1 sequence (looked up): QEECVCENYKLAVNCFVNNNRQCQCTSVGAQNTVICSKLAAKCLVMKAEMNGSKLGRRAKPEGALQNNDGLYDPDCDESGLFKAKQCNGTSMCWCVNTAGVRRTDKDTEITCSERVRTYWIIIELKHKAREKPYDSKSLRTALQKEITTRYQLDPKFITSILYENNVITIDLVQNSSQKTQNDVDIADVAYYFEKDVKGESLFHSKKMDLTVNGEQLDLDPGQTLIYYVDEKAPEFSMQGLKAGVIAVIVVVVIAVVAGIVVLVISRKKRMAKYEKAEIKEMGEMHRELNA
In words: cell-based or functional assay.

Assay [2] addresses human CD3 on purified human CD3 positive T cells (human, UniProt P07766 23-207). In words: cell-based or functional assay.
The target of assay [3] is T2, recombinant human CD3 (rhCD3εδ) (human, UniProt P07766 23-126; P04234 22-105).
T2 chain: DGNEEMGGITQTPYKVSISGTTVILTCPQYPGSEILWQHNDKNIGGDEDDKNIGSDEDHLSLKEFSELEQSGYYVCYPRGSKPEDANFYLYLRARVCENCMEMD
In words: sandwich ELISA: rhCD3εδ coated on plate, detection with peroxidase-conjugated protein L. In general terms: ELISA stands for enzyme-linked immunosorbent assay.

Assay [4] addresses T3, recombinant human EpCAM (rhEpCAM) (human, UniProt P16422 24-265).
T3 construct: Bought recombinant protein coated on the ELISA plate
T3 sequence (looked up): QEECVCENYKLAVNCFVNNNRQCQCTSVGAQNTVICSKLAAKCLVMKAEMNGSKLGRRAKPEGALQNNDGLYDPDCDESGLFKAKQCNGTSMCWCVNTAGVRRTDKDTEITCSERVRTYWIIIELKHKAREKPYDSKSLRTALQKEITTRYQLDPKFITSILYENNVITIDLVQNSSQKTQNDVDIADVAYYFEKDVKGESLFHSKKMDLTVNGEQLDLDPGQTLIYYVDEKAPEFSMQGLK
The experiment in a line: sandwich ELISA: rhEpCAM coated on plate, detection with peroxidase-conjugated protein L. As to the method:
The binding capability of anti-EpCAM×anti-CD3 ProTIA composition was verified with an EpCAM/peroxidase-conjugated protein-L sandwich ELISA. In the ELISA binding assay, recombinant human EpCAM (rhEpCAM) (Sino BiologicalR&D Systems cat #10694-H08H960-EP-50) was coated on a 96-well, flat-bottomed plate at a concentration of 0.1 microg/100 microL. After overnight incubation at 4° C., the assay plate was washed and blocked with 3% bovine serum albumin (BSA) for 1 h at room temperature. The plate was washed again followed by the introduction of a dose range of non-cleavable anti-EpCAM×anti-CD3 ProTIA (i.e., a ProTIA without the release segment cleavage sequence and AC1484, a ProTIA chimeric polypeptide assembly composition) and protease-treated and protease-untreated anti-EpCAM×anti-CD3 ProTIA (e.g. AC1476). The dose range utilized for non-cleavable and protease-treated and untreated ProTIA was 0.0006 to 5 nM, achieved with a 1:6 fold serial dilution scheme from a starting concentration of 5 nM. The plate was allowed to incubate with shaking for 1 h at room temperature to allow the non-cleavable, protease-cleaved and uncleaved ProTIA to bind to the rhEpCAM coated on the plate. Unbound components were removed with a wash step and a peroxidase-conjugated protein L (PierceThermoFisher Scientific cat #32420) was added. After an appropriate incubation period that allowed protein-L to bind to the kappa light of the scFvs, any unbound reagent was removed by a wash step followed by the addition of tetramethylbenzidine (TMB) substrate to each well. TMB is a chromogenic substrate of peroxidase. After desired color intensity was reached, 0.2 N sulfuric acid was added to stop the reaction and absorbance (OD) was measured at 450 nm using a spectrophotometer. The intensity of the color is proportional to the concentration of non-cleavable, protease-treated and untreated anti-EpCAM×anti-CD3 ProTIA captured by the rhEpCAM/protein-L sandwich ELISA. The intensity of the color produced (measured OD) was plotted against protein concentration; and the concentration of non-cleavable, protease-cleaved and uncleaved anti-EpCAM×anti-CD3 ProTIA that gave half-maximal response (EC₅₀) was derived with a 4-parameter logistic regression equation using GraphPad prism software.

B1: AC1476 aEpCAM-aCD3-BSRS1-XTEN_AE864-His(6), protease-untreated (intact) anti-EpCAM×anti-CD3 ProTIA (bispecific antibody)
chain: DIQMTQSPSSLSASVGDRVTITCRSTKSLLHSNGITYLYWYQQKPGKAPKLLIYQMSNLASGVPSRFSSSGSGTDFTLTISSLQPEDFATYYCAQNLEIPRTFGQGTKVEIKGATPPETGAETESPGETTGGSAESEPPGEGQVQLVQSGPGLVQPGGSVRISCAASGYTFTNYGMNWVKQAPGKGLEWMGWINTYTGESTYADSFKGRFTFSLDTSASAAYLQINSLRAEDTAVYYCARFAIKGDYWGQGTLLTVSSGGGGSDIQMTQSPSSLSASVGDRVTITCRASQDIRNYLNWYQQKPGKAPKLLIYYTSRLESGVPSRFSGSGSGTDYTLTISSLQPEDFATYYCQQGNTLPWTFGQGTKVEIKGATPPETGAETESPGETTGGSAESEPPGEGEVQLVESGGGLVQPGGSLRLSCAASGYSFTGYTMNWVRQAPGKGLEWVALINPYKGVSTYNQKFKDRFTISVDKSKNTAYLQMNSLRAEDTAVYYCARSGYYGDSDWYFDVWGQGTLVTVSSGTAEAASASGLSGRSDNHSPLGLAGSPGSPAGSPTSTEEGTSESATPESGPGTSTEPSEGSAPGSPAGSPTSTEEGTSTEPSEGSAPGTSTEPSEGSAPGTSESATPESGPGSEPATSGSETPGSEPATSGSETPGSPAGSPTSTEEGTSESATPESGPGTSTEPSEGSAPGTSTEPSEGSAPGSPAGSPTSTEEGTSTEPSEGSAPGTSTEPSEGSAPGTSESATPESGPGTSTEPSEGSAPGTSESATPESGPGSEPATSGSETPGTSTEPSEGSAPGTSTEPSEGSAPGTSESATPESGPGTSESATPESGPGSPAGSPTSTEEGTSESATPESGPGSEPATSGSETPGTSESATPESGPGTSTEPSEGSAPGTSTEPSEGSAPGTSTEPSEGSAPGTSTEPSEGSAPGTSTEPSEGSAPGTSTEPSEGSAPGSPAGSPTSTEEGTSTEPSEGSAPGTSESATPESGPGSEPATSGSETPGTSESATPESGPGSEPATSGSETPGTSESATPESGPGTSTEPSEGSAPGTSESATPESGPGSPAGSPTSTEEGSPAGSPTSTEEGSPAGSPTSTEEGTSESATPESGPGTSTEPSEGSAPGTSESATPESGPGSEPATSGSETPGTSESATPESGPGSEPATSGSETPGTSESATPESGPGTSTEPSEGSAPGSPAGSPTSTEEGTSESATPESGPGSEPATSGSETPGTSESATPESGPGSPAGSPTSTEEGSPAGSPTSTEEGTSTEPSEGSAPGTSESATPESGPGTSESATPESGPGTSESATPESGPGSEPATSGSETPGSEPATSGSETPGSPAGSPTSTEEGTSTEPSEGSAPGTSTEPSEGSAPGSEPATSGSETPGTSESATPESGPGTSTEPSEGSAPGHHHHHH
notes: also called ProTIA-X; protease-untreated anti-EpCAM×anti-CD3 ProTIA
What is called EC50 is the concentration needed to bring the measured effect to its halfway point. For B1, the “EC50, LDH release cytotoxicity, PBMC:SK-OV-3 5:1” value in assay [1] turned out to be 0.136 nM. Besides, in assay [2], the “EC50, LDH release cytotoxicity, purified human CD3 positive T cells:OVCAR-3 5:1” value stood at 0.0007 nM and the “EC50, LDH release cytotoxicity, purified human CD3 positive T cells:SK-OV-3 5:1” value was 0.134 nM. For the same molecule, in assay [3], the EC50 was found to be 1.8 nM; the “fold hindrance of binding by XTEN864, against the cleaved and released anti-CD3scFv portion” value is roughly 5.8 fold. In assay [4], the concentration giving a half-maximal response (EC50) is 0.28 nM and the “fold hindrance of binding by XTEN864, against protease-treated ProTIA” value is no less than 2.3 fold.

B2: AC1484, non-cleavable anti-EpCAM×anti-CD3 ProTIA (without the release segment cleavage sequence) (bispecific antibody)
chain: DIQMTQSPSSLSASVGDRVTITCRSTKSLLHSNGITYLYWYQQKPGKAPKLLIYQMSNLASGVPSRFSSSGSGTDFTLTISSLQPEDFATYYCAQNLEIPRTFGQGTKVEIKGATPPETGAETESPGETTGGSAESEPPGEGQVQLVQSGPGLVQPGGSVRISCAASGYTFTNYGMNWVKQAPGKGLEWMGWINTYTGESTYADSFKGRFTFSLDTSASAAYLQINSLRAEDTAVYYCARFAIKGDYWGQGTLLTVSSGGGGSDIQMTQSPSSLSASVGDRVTITCRASQDIRNYLNWYQQKPGKAPKLLIYYTSRLESGVPSRFSGSGSGTDYTLTISSLQPEDFATYYCQQGNTLPWTFGQGTKVEIKGATPPETGAETESPGETTGGSAESEPPGEGEVQLVESGGGLVQPGGSLRLSCAASGYSFTGYTMNWVRQAPGKGLEWVALINPYKGVSTYNQKFKDRFTISVDKSKNTAYLQMNSLRAEDTAVYYCARSGYYGDSDWYFDVWGQGTLVTVSSGSPGSPAGSPTSTEEGTSESATPESGPGTSTEPSEGSAPGSPAGSPTSTEEGTSTEPSEGSAPGTSTEPSEGSAPGTSESATPESGPGSEPATSGSETPGSEPATSGSETPGSPAGSPTSTEEGTSESATPESGPGTSTEPSEGSAPGTSTEPSEGSAPGSPAGSPTSTEEGTSTEPSEGSAPGTSTEPSEGSAPGTSESATPESGPGTSTEPSEGSAPGTSESATPESGPGSEPATSGSETPGTSTEPSEGSAPGTSTEPSEGSAPGTSESATPESGPGTSESATPESGPGSPAGSPTSTEEGTSESATPESGPGSEPATSGSETPGTSESATPESGPGTSTEPSEGSAPGTSTEPSEGSAPGTSTEPSEGSAPGTSTEPSEGSAPGTSTEPSEGSAPGTSTEPSEGSAPGSPAGSPTSTEEGTSTEPSEGSAPGTSESATPESGPGSEPATSGSETPGTSESATPESGPGSEPATSGSETPGTSESATPESGPGTSTEPSEGSAPGTSESATPESGPGSPAGSPTSTEEGSPAGSPTSTEEGSPAGSPTSTEEGTSESATPESGPGTSTEPSEGSAPGTSESATPESGPGSEPATSGSETPGTSESATPESGPGSEPATSGSETPGTSESATPESGPGTSTEPSEGSAPGSPAGSPTSTEEGTSESATPESGPGSEPATSGSETPGTSESATPESGPGSPAGSPTSTEEGSPAGSPTSTEEGTSTEPSEGSAPGTSESATPESGPGTSESATPESGPGTSESATPESGPGSEPATSGSETPGSEPATSGSETPGSPAGSPTSTEEGTSTEPSEGSAPGTSTEPSEGSAPGSEPATSGSETPGTSESATPESGPGTSTEPSEGSAPGHHHHHH
notes: also called non-cleavable ProTIA; protease-noncleavable anti-EpCAM×anti-CD3 ProTIA
Take B2: the “EC50, LDH release cytotoxicity, PBMC:SK-OV-3 5:1” value in assay [1] amounted to 1.79 nM. The “EC50, LDH release cytotoxicity, purified human CD3 positive T cells:OVCAR-3 5:1” value in assay [2] was determined as 0.086 nM. In assay [2], the “EC50, LDH release cytotoxicity, purified human CD3 positive T cells:SK-OV-3 5:1” value was determined as 2.66 nM. In addition, the EC50 in assay [3] is 2.2 nM; in assay [4] it was 0.32 nM.
